Assay results taken from publication PMC12624782 (The Journal of Biological Chemistry, 2025).

Assays:
TaGST-10 [1] = molecular target: T1, TaGST-10 (Triticum aestivum, UniProt A0A3B5XZG4); test: LC-MS/MS of DON-13-GSH formation, […] DON, apparent specific activity; assay type: biochemical; design: gene LOC123049460; N-His6-SUMO-TaGST-10, IMAC and size-exclusion purified
T1 sequence (A0A3B5XZG4 1-234): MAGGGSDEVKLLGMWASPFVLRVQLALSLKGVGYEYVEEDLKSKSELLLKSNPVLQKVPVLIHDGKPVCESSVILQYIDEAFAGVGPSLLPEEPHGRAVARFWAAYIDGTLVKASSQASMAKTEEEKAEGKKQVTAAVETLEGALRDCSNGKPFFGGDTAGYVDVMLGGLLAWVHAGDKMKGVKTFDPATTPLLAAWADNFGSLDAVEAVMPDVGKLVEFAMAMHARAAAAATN

TaGST-10 [2] = molecular target: T1, TaGST-10; test: co-crystal structure, […] Å; assay type: binding; design: gene LOC123049460; TaGST-10 after TEV removal of the N-His6-MBP tag; dimer in the asymmetric unit
purified protein [3] = substrate: C=C(CC)C(=O)c1ccc(OCC(=O)O)c(Cl)c1Cl; test: purified protein; conditions: GSH; pH 6.5; 20.0 °C
purified protein [4] = substrate: S=C=NCCc1ccccc1; test: purified protein; assay type: biochemical, Triticum aestivum; conditions: GSH; pH 6.5; 20.0 °C
purified protein [5] = substrate: N[C@@H](CCC(=O)N[C@@H](CS)C(=O)NCC(=O)O)C(=O)O; test: purified protein; assay type: biochemical, Triticum aestivum; conditions: G-site in the N-terminal domain; pH 6.5; 20.0 °C

Q: `CC1=C[C@H]2O[C@@H]3[C@H](O)C[C@](C)([C@@]2(CO)[C@H](O)C1=O)[C@]31CO1` [DON, deoxynivalenol] was tested. Which “LC-MS/MS of DON-13-GSH formation, 5 mM DON, apparent specific activity” value (TaGST-10 [1]) did it give?
A: Its value is 6.3 10^−5 ± 0.4 10^−5.

Q: How did the “co-crystal structure, 2.3 Å” value (TaGST-10 [2]) turn out when `CC1=C[C@H]2O[C@@H]3[C@H](O)C[C@](C)([C@]24CO[C@@]1(O)[C@H]4O)[C@]3(O)CSC[C@H](NC(=O)CC[C@H](N)C(=O)O)C(=O)NCC(=O)O` (mixture of isomers) [DON-13-GSH] was run?
A: The value was “TaGST-10 crystallized as a dimer in the asymmetric unit and contained a molecule of DON-13-GSH in each active site”.

B1: TaGST-10 (Triticum aestivum) (protein)
chain: T1 sequence (A0A3B5XZG4 1-234)
notes: N-His6-MBP-TaGST-10 (full-length fusion)
Q: With B1 as the molecule, how does the K0.5 (purified protein [3]) read?
A: Its K0.5 is 0.023 ± 0.003 mM.

Q: And the kcat (purified protein [3])?
A: The kcat was 0.13 s⁻¹.

Q: What about the kcat/Km (purified protein [3]) of the same molecule?
A: The kcat/Km was 5500 M⁻¹ s⁻¹.

Q: And the K0.5 (purified protein [4])?
A: Its K0.5 is 0.041 ± 0.004 mM.

Q: What about the kcat (purified protein [4]) of the same molecule?
A: Its kcat is 2 s⁻¹.

Q: What about the kcat/Km (purified protein [4]) of the same molecule?
A: The kcat/Km was 47000 M⁻¹ s⁻¹.

Q: What about the K0.5 (purified protein [5]) of the same molecule?
A: The K0.5 was 0.46 ± 0.01 mM.
